The results in this text go back to publication PMC5213842, “Characterization and Crystal Structure of a Robust Cyclohexanone Monooxygenase” (Angewandte Chemie (International Ed. in English), 2016).

Some results are limits rather than exact numbers.

The target in one series is T1, TfPAMO (Thermobifida fusca, UniProt Q47PU3).
T1 construct: gene pamO
Description: small-scale conversion. It counts as biochemical. To be noted: racemic substrate; enzyme preparation not given.

The next series has as its target T2, TmCHMO (Thermocrispum municipale, UniProt A0A1L1QK39).
T2 construct: purified recombinant enzyme (E. coli used as expression host for whole-cell work)
T2 sequence (A0A1L1QK39 1-541): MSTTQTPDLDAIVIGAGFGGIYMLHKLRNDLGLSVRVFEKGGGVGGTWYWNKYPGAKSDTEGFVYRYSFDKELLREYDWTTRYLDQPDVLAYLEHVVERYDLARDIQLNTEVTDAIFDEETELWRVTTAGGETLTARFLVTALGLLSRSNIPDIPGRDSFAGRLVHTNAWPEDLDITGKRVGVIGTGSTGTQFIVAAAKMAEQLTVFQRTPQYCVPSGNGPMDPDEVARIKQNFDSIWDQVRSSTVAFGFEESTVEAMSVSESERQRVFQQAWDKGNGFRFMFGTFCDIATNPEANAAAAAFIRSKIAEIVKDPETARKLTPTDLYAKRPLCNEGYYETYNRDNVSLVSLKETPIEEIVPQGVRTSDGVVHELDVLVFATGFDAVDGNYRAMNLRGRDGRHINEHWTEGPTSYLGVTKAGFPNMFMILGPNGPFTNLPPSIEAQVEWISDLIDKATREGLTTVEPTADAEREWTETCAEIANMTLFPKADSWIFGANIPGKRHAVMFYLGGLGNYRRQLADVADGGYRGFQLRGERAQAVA
The arrangement: steady-state kinetics, NADPH consumption followed by absorbance at 340 nm. To be noted: 150 uM NADPH, pH 7.0, 25 °C; substrate. As to the method: Steady-State Kinetics. Steady-state kinetic parameters for purified TmCHMO and AcCHMO were determined using a V-660 spectrophotometer (Jasco). Enzyme (0.02-4 μM), NADPH (150 μM), and increasing substrate concentrations were reacted in air-saturated 50 mM Tris-HCl at pH 7.0 and 25 °C. The rate of NADPH consumption was determined by following the decrease in absorbance at 340 nm (ɛ340 = 6.22 mM-1 cm-1 ). The initial rates of the reactions were plotted as a function of the substrate concentrations. […] Among the assayed compounds (Figure S3), only progesterone and cyclopentadecanone (50 μM) were not substrates of either enzyme based on the NADPH consumption assay. 19 4. EXPERIMENTAL SECTION Materials. NADPH was acquired from Jülich Chiral Solutions GmbH. All other materials were acquired from Sigma-Aldrich unless otherwise specified. Cloning of TmCHMO and BVMOs Purification. The amino acid sequence of a putative CHMO from the thermophilic actinomycete T. municipale DSM 44069 was retrieved from the NCBI database (http://www.ncbi.nlm.nih.gov). This organism is able to grow at 28-60 °C.[8] The TmCHMO sequence was found by carrying out a BLASTP (http://blast.ncbi.nlm.nih.gov/Blast.cgi) using the amino acid sequence of AcCHMO as a query sequence. A codon-optimized TmCHMO gene was synthetized and cloned into pUC57 plasmid by GenScript. […]

The test system of the next series is O=C1CCC1. Description: purified protein.
The subject of a further series is O=C1CC2C=CCC12. The series can be described thus: purified protein.
The next series relates to O=C1CCCCC1. The series can be described thus: purified protein.
Substrate in series [1]: CCCCCCC(C)=O
Description: purified protein, by the assay type. The arrangement: steady-state kinetics, NADPH consumption followed by absorbance at 340 nm. To be noted: pH 7.0; 25.0 °C. As to the method:
(§1) Steady-State Kinetics. Steady-state kinetic parameters for purified TmCHMO and AcCHMO were determined using a V-660 spectrophotometer (Jasco). Enzyme (0.02-4 μM), NADPH (150 μM), and increasing substrate concentrations were reacted in air-saturated 50 mM Tris-HCl at pH 7.0 and 25 °C. The rate of NADPH consumption was determined by following the decrease in absorbance at 340 nm (ɛ340 = 6.22 mM-1 cm-1 ). The initial rates of the reactions were plotted as a function of the substrate concentrations. […] Among the assayed compounds (Figure S3), only progesterone and cyclopentadecanone (50 μM) were not substrates of either enzyme based on the NADPH consumption assay. 19 4. EXPERIMENTAL SECTION Materials. NADPH was acquired from Jülich Chiral Solutions GmbH. All other materials were acquired from Sigma-Aldrich unless otherwise specified. Cloning of TmCHMO and BVMOs Purification. The amino acid sequence of a putative CHMO from the thermophilic actinomycete T. municipale DSM 44069 was retrieved from the NCBI database (http://www.ncbi.nlm.nih.gov). This organism is able to grow at 28-60 °C.[8] The TmCHMO sequence was found by carrying out a BLASTP (http://blast.ncbi.nlm.nih.gov/Blast.cgi) using the amino acid sequence of AcCHMO as a query sequence. A codon-optimized TmCHMO gene was synthetized and cloned into pUC57 plasmid by GenScript. The TmCHMO gene was subcloned using standard methods into the pCRE2 plamid[9] with XhoI and HindIII restriction sites at the 5’ end and 3’ end, respectively. The resulting plasmid is a pBAD vector harboring a gene encoding TmCHMO fused to the C-terminus of a thermostable variant of phosphite dehydrogenase (PTDH). A histidine tag at the N-terminus of the PTDH is also included in this construct. The same construct containing either the AcCHMO gene or the TfPAMO gene, instead of the TmCHMO gene, was carried out for a previous study[9] and used here to obtain the corresponding fusion proteins. The TmCHMO gene was also subcloned into a pBAD plasmid containing the SUMO (small ubiquitin-related modifier) gene with a N-terminal histidine tag (pBAD-His-Tag-SUMO-TmCHMO).

Substrate in series [2]: O=C1CCCC1
The series can be described thus: purified protein, by the assay type. The arrangement: steady-state kinetics, NADPH consumption followed by absorbance at 340 nm. To be noted: pH 7.0; 25.0 °C. As to the method: as §1

Substrate in series [3]: CC(=O)Cc1ccccc1
The series can be described thus: purified protein, by the assay type. The arrangement: steady-state kinetics, NADPH consumption followed by absorbance at 340 nm. The conditions noted are these: pH 7.0; 25.0 °C. As to the method:
as §1

Substrate in series [4]: CCC(C)=O
The series can be described thus: purified protein, by the assay type. The arrangement: steady-state kinetics, NADPH consumption followed by absorbance at 340 nm. The conditions noted are these: pH 7.0; 25.0 °C. As to the method:
as §1

Substrate in series [5]: CC(=O)c1ccccc1
The series can be described thus: purified protein, by the assay type. The arrangement: steady-state kinetics, NADPH consumption followed by absorbance at 340 nm. The conditions noted are these: pH 7.0; 25.0 °C. As to the method: as §1

Substrate in series [6]: CCCCCCCCC(C)=O
The series can be described thus: purified protein, by the assay type. To be noted: pH 7.0; 25.0 °C. The arrangement: steady-state kinetics, NADPH consumption followed by absorbance at 340 nm. As to the method: as §1

Substrate in series [7]: O=C1CC2C=CCC12
The series can be described thus: steady-state kinetics. It counts as biochemical, Thermocrispum municipale.

Substrate in series [8]: O=C1CCC1
The series can be described thus: steady-state kinetics. It counts as biochemical, Thermocrispum municipale.

Substrate in series [9]: O=C1CCCCC1
The series can be described thus: steady-state kinetics. It counts as biochemical, Thermocrispum municipale.

T1 sequence (Q47PU3 whole entry): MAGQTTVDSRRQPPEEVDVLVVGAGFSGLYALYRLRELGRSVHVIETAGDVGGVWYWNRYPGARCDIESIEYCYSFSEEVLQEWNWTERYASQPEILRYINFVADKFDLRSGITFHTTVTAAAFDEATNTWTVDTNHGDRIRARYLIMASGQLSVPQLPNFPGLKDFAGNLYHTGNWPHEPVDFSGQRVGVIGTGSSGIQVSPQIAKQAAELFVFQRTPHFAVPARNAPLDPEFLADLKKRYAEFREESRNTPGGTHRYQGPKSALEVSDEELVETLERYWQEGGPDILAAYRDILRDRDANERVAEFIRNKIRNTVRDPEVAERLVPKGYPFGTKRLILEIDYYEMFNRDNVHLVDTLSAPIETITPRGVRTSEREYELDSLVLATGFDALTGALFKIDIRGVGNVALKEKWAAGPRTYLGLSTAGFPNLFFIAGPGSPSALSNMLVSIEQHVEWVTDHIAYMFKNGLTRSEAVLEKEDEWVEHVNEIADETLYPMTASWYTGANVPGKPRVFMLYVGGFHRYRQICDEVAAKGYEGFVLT

As to `O=C1CC2C=CCC12` (racemic) [bicyclo[3.2.0]hept‐2‐en‐6‐one], the small-scale conversion result at TfPAMO was “By contrast, TfPAMO produced all four possible lactones”.

Turning to `CSc1ccccc1` [thioanisole], the Km on TmCHMO was less than 60 µM.

In the case of AcCHMO (Acinetobacter johnsonii), the kcat was 4 s⁻¹ in the series on O=C1CCC1, 4 s⁻¹ in the series with O=C1CC2C=CCC12 and 6 s⁻¹ in the series on O=C1CCCCC1. For the same molecule, in the series on O=C1CCCCC1, the Michaelis-Menten constant (Km) stood at 9 µM.

B1: TmCHMO (Thermocrispum municipale DSM 44069) (protein)
chain: T2 sequence (A0A1L1QK39 1-541)
notes: purified recombinant enzyme (E. coli used as expression host for whole-cell work)
Consider B1, for which the Km in series [1] is 100 µM; in series [2], 20 µM; in series [3] it was 200 µM; in series [4], 500 µM; in series [5], 5000 µM; in series [6], 50 µM. The kcat in “steady-state kinetics [7]”, in “steady-state kinetics [8]” and in the series “steady-state kinetics [9]” was 2 s⁻¹ in each case.

As a reminder, the Km is the substrate concentration at which the rate is half of its maximum. One may read the kcat as the number of substrate molecules converted per active site and unit of time at saturation.
